In patent US20090029005A1:
Where “and” joins values, the source holds several entries; their conditions need not be identical. Equal values may be shown once.

Target: Angiotensin-I Converting Enzyme (ACE)
Assay: cell-based or functional assay

Sequence of Ovotransferrin (TRFE_CHICK), not hydrolysed and not digested (P02789 20-705 limits assumed): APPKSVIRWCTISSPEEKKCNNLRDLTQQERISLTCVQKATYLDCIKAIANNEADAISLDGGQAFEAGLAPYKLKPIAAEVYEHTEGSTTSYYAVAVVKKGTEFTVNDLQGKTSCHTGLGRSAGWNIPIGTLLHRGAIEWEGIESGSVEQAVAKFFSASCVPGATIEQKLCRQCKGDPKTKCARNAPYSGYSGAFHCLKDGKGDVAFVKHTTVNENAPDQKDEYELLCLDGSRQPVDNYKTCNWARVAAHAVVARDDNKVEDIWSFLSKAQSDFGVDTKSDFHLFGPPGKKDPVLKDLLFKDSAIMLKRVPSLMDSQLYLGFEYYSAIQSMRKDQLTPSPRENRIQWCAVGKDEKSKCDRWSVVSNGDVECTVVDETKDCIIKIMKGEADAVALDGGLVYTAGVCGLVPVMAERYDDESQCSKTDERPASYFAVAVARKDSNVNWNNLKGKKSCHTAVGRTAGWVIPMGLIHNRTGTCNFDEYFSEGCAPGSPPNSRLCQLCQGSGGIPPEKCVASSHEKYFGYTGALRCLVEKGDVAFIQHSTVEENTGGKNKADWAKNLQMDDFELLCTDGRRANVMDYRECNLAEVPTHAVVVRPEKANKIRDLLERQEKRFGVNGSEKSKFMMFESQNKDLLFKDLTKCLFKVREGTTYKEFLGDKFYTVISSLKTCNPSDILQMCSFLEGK

Row | Substance | inhibition (%) at 0.25 mg/ml | inhibition (%) at 1 mg/ml | inhibition (%) at 2 mg/ml | ACE activity IC50; total hydrolysis time 11.5 hours (batch for animal study) | ACE inhibition (% inhibition) at 0.5 mg/ml | ACE inhibition IC50; hydrolysis 4 h, 2% enzyme, DH 0% | ACE inhibition IC50; hydrolysis 5 h, 4% enzyme, DH 5.0% | ACE inhibition IC50; hydrolysis 5 h, 4% enzyme, DH 12.0 | ACE inhibition IC50; hydrolysis 6 h, 4% enzyme, DH 7.7% | ACE inhibition IC50; hydrolysis 7 h, 6% enzyme, DH 12.9%
1 | Egg yolk/PTN hydrolysate | 27.6% and 44.3% | 75.7% and 59.9% | 96.9% and 78.1% | – | – | – | – | – | – | –
2 | Ovomucin/Alcalase hydrolysate | 37.1% and 43.8% | 67.2% and 69.9% | 81.7% and 86% | 0.23 mg/mL | 56% and 57% and 55% | > 2 mg/mL | 0.76 mg/mL | 0.54 mg/mL | 0.66 mg/mL | 0.45 mg/mL
3 | EggWhite 1101/Protex 6L hydrolysate | 31.3% and 33.3% | 63.2% and 62.2% | – | – | – | – | – | – | – | –
4 | Ovomucin/PTN hydrolysate | 43.8% and 21% | 65.5% and 50.9% | – | – | 50% and 55% and 45% | – | – | – | – | –
5 | Ovomucin/Protex 6L hydrolysate | 47.8% and 30.5% | 87.6% and 65% | 90.8% and 65.8% | – | 59% and 69% and 49% | – | – | – | – | –
6 | Ovotransferrin/PEM hydrolysate | 9.8% and 31.8% | 69.1% and 73.8% | – | – | 55% and 52% and 57% | – | – | – | – | –
7 | Ovalbumin/PEM hydrolysate | – | 57.3% and 36.3% | 61% and 39.1% | – | – | – | – | – | – | –
8 | Egg yolk/Newlase F hydrolysate | 24.1% and 36.1% | 69.5% and 80% | – | – | 57% and 51% | – | – | – | – | –
9 | EggWhite 1102/Promod 258P hydrolysate | 42.8% and 19.5% | 75% and 61.9% | 91.3% and 76.8% | – | – | – | – | – | – | –
10 | EggWhite 1102/Alcalase hydrolysate | 43% and 23.3% | 76.9% and 67% | 86.3% and 65.8% | – | – | – | – | – | – | –
11 | Ovotransferrin/Promod 258P hydrolysate | 41.1% and 45.1% | 85.2% and 86.2% | 121% and 104% | – | 62% and 58% and 66% | – | – | – | – | –
12 | Ovalbumin/Alcalase hydrolysate | – | – | 89.2% and 74.8% | – | – | – | – | – | – | –
13 | Lysozyme/PEM hydrolysate | 49.7% and 49.5% | – | 102% and 123% | – | 56% and 55% and 58% | – | – | – | – | –
14 | Ovomucin/Newlase F hydrolysate | 30.6% and 18.6% | 45.7% and 49.2% | 59.6% and 49.2% | – | – | – | – | – | – | –
15 | Egg yolk/PEM hydrolysate | 45.3% and 36.6% | 69.8% and 64.6% | 99.7% and 96.6% | – | 58% and 62% and 53% | – | – | – | – | –
16 | Lysozyme/Alcalase hydrolysate | – | 81.3% and 79.9% | 126% and 102% | – | 70% and 82% and 58% | – | – | – | – | –
17 | Ovomucin/PEM hydrolysate | 41.1% and 19.6% and 36.1% | 51.3% and 62.3% and 66% | 73.1% and 78.1% and 88% | – | – | – | – | – | – | –
18 | Egg yolk/Alcalase hydrolysate | 59.1% and 41.9% | – | 100% | – | 68% and 76% and 61% | – | – | – | – | –
19 | Ovotransferrin/PTN hydrolysate | 51% and 49.8% | 80.3% and 84.3% | – | – | 64% and 68% and 60% | – | – | – | – | –
20 | Lysozyme/Protex 6L hydrolysate | 65.8% and 58.3% | 83% and 83.5% | – | – | 71% and 74% and 69% | – | – | – | – | –
21 | Ovalbumin/Promod 258P hydrolysate | 37.3% and 33.8% | 87.5% and 67% | 103% and 78.2% | – | 53% and 49% and 58% | – | – | – | – | –
22 | Ovalbumin hydrolysate (enzyme of the column not resolvable: PEM, Newlase F or Alcalase) | 17.4% and 13.4% | 18.2% and 41.3% | 87.8% and 64.4% | – | – | – | – | – | – | –
23 | EggWhite 1101/Alcalase hydrolysate | 46.5% and 32.1% | 66.5% and 71.7% | – | – | – | – | – | – | – | –
24 | Ovotransferrin/Protex 6L hydrolysate | 44.4% and 34.4% | 76.8% and 70.2% | 97.3% and 88% | – | 59% and 60% | – | – | – | – | –
25 | Lysozyme/PTN hydrolysate | – | 75.7% and 75.8% | 79.7% and 103% | – | 52% and 62% and 42% | – | – | – | – | –
26 | Ovalbumin/Newlase F hydrolysate | 23.5% | 55.9% | 82.5% | – | – | – | – | – | – | –
27 | EggWhite 1102/Protex 6L hydrolysate | 33.2% and 41.7% | 58.4% and 66% | 60.2% and 71.8% | – | – | – | – | – | – | –
28 | Ovotransferrin/Newlase F hydrolysate | 58.6% and 51.6% | 96.1% and 83.1% | – | – | 70% and 71% and 69% | – | – | – | – | –
29 | EggWhite 1101/Promod 258P hydrolysate | 45% and 33.9% | 77.9% and 78.4% | – | – | – | – | – | – | – | –
30 | Egg yolk/Protex 6L hydrolysate | 41.3% and 62.7% | – | 105% and 89.9% | – | – | – | – | – | – | –

Same assay, conditions: not given

Row | Substance | ACE inhibition IC50; hydrolysis 7.5 h, 6% enzyme, DH 15.0% | ACE inhibition IC50; hydrolysis 8 h, 6% enzyme, DH 21.7 | ACE inhibition IC50; hydrolysis 10.5 h, 8% enzyme, DH 21.2 | ACE inhibition IC50; hydrolysis 10.5 h, 8% enzyme, DH 23.9 | ACE inhibition IC50; hydrolysis 13.5 h, 10% enzyme, DH 22.0 | ACE inhibition IC50; hydrolysis 16.5 h, 12% enzyme, DH 21.1 | inhibition (%) at 0.0625 mg/ml | inhibition (%) at 0.125 mg/ml | inhibition (%) at 0.5 mg/ml | ACE inhibition (%) at 0.167 mg/ml, Hip-His-Leu/TNBS microtiter assay
31 | Ovomucin/Alcalase hydrolysate | 0.43 mg/mL | 0.39 mg/mL | 0.25 mg/mL | 0.21 mg/mL | 0.18 mg/mL | 0.18 mg/mL | 24% and 22% | 25.5% and 33.2% | 57.3% and 55.2% | –
32 | EggWhite 1101/Protex 6L hydrolysate | – | – | – | – | – | – | 17% and 11.9% | 20.2% and 23% | 50.6% and 44.4% | –
33 | Ovomucin/PTN hydrolysate | – | – | – | – | – | – | – | 19.7% and 16.9% | 55.3% and 44.7% | –
34 | Ovomucin/Protex 6L hydrolysate | – | – | – | – | – | – | 24.9% and 5.1% | 31.4% and 16.3% | 68.5% and 49% | –
35 | Ovotransferrin/PEM hydrolysate | – | – | – | – | – | – | -19.4% and -10.7% | – | 52.4% and 56.6% | –
36 | Ovalbumin/PEM hydrolysate | – | – | – | – | – | – | – | – | 51.4% and 27.7% | –
37 | Egg yolk/Newlase F hydrolysate | – | – | – | – | – | – | 15.5% and 21.6% | 21.7% and 18.2% | 51.3% and 57.3% | –
38 | Lysozyme (Lysozyme C, LYC_CHICK), not hydrolysed and not digested (from UniProt P00698 19-147) (enzyme) | – | – | – | – | – | – | – | – | – | -4.7%
39 | EggWhite 1102/Promod 258P hydrolysate | – | – | – | – | – | – | – | – | 62% and 42.7% | –
40 | EggWhite 1102/Alcalase hydrolysate | – | – | – | – | – | – | 18.2% and 2.4% | 36.4% and 16.7% | 58.8% and 48.1% | –
41 | Ovotransferrin/Promod 258P hydrolysate | – | – | – | – | – | – | 18.4% and -1% | 40% and 18.8% | 57.7% and 66.3% | –
42 | Ovalbumin/Alcalase hydrolysate | – | – | – | – | – | – | 23.4% and 3.1% | 7.3% and 16.2% | – | –
43 | Lysozyme/PEM hydrolysate | – | – | – | – | – | – | 29.2% and 27.3% | 38% and 35.1% | 54.7% and 58% | –
44 | Ovotransferrin (TRFE_CHICK), not hydrolysed and not digested (from UniProt P02789 20-705) | – | – | – | – | – | – | – | – | – | 0.7%
45 | Ovomucin/Newlase F hydrolysate | – | – | – | – | – | – | -13.7% and 7.8% | – | 42.5% and 31.3% | –
46 | Egg yolk/PEM hydrolysate | – | – | – | – | – | – | 15.4% and 25.4% | 28.8% and 52.8% | 62.1% and 52.9% | –

Row | Substance | ACE inhibition IC50; hydrolysis 7.5 h, 6% enzyme, DH 15.0% | ACE inhibition IC50; hydrolysis 8 h, 6% enzyme, DH 21.7 | ACE inhibition IC50; hydrolysis 10.5 h, 8% enzyme, DH 21.2 | ACE inhibition IC50; hydrolysis 10.5 h, 8% enzyme, DH 23.9 | ACE inhibition IC50; hydrolysis 13.5 h, 10% enzyme, DH 22.0 | ACE inhibition IC50; hydrolysis 16.5 h, 12% enzyme, DH 21.1 | inhibition (%) at 0.0625 mg/ml | inhibition (%) at 0.125 mg/ml | inhibition (%) at 0.5 mg/ml | ACE inhibition (%) at 0.167 mg/ml, Hip-His-Leu/TNBS microtiter assay
47 | Lysozyme/Alcalase hydrolysate | – | – | – | – | – | – | 35.2% and 14.3% | – | 82.1% and 58.1% | –
48 | Ovomucin/PEM hydrolysate | – | – | – | – | – | – | 25.9% and 5.5% | 13.3% and 9.1% | 66.3% and 43.1% and 48.6% | –
49 | Egg yolk/Alcalase hydrolysate | – | – | – | – | – | – | 30.9% and 6.5% | 45.7% and 25.1% | 75.8% and 61% | –
50 | Ovomucin, not hydrolysed and not digested | – | – | – | – | – | – | – | – | – | 2.2%
51 | Ovotransferrin/PTN hydrolysate | – | – | – | – | – | – | – | 28.3% and 37.9% | 67.8% and 59.9% | –
52 | Lysozyme/Protex 6L hydrolysate | – | – | – | – | – | – | 42.4% and 30.9% | 42.2% and 44.6% | 73.9% and 68.7% | –
53 | Ovalbumin/Promod 258P hydrolysate | – | – | – | – | – | – | 14% and 8.7% | 40.7% and 23.2% | 48.6% and 57.6% | –
54 | Ovalbumin hydrolysate (enzyme of the column not resolvable: PEM, Newlase F or Alcalase) | – | – | – | – | – | – | -6.8% and 0% | 0% and 1.6% | 31.1% and 24.6% | –
55 | EggWhite 1101/Alcalase hydrolysate | – | – | – | – | – | – | 19.6% and 10.7% | 34.2% and 12.8% | 63.1% and 39.9% | –
56 | Ovotransferrin/Protex 6L hydrolysate | – | – | – | – | – | – | 13.7% and 12% | 30.6% and 19.1% | 60.2% and 58.6% | –
57 | Lysozyme/PTN hydrolysate | – | – | – | – | – | – | 18.9% and 6.4% | – | 62.4% and 42% | –
58 | Ovalbumin/Newlase F hydrolysate | – | – | – | – | – | – | 3.7% | 16.3% | 45.8% | –
59 | EggWhite 1102/Protex 6L hydrolysate | – | – | – | – | – | – | 16.3% and 4.9% | 24.7% and 19% | 47% and 49.2% | –
60 | Ovotransferrin/Newlase F hydrolysate | – | – | – | – | – | – | 26.9% and 28.7% | 33.7% and 50.9% | 70.5% and 69.1% | –
61 | EggWhite 1101/Promod 258P hydrolysate | – | – | – | – | – | – | 27.9% and 20% | 40.3% and 36.2% | 62.8% and 47.2% | –
62 | Egg yolk/Protex 6L hydrolysate | – | – | – | – | – | – | 15% and 22.4% | 26.6% and 37% | – | –

Same assay, conditions: not given

Row | Substance | ACE inhibition (%) at 0.019 mg/ml, Hip-His-Leu/TNBS microtiter assay | ACE inhibition (%) at 0.056 mg/ml, Hip-His-Leu/TNBS microtiter assay | ACE inhibition (%) at 0.500 mg/ml, Hip-His-Leu/TNBS microtiter assay | inhibition (%) at 2 mg/ml (*Absorption above 3)
63 | Ovotransferrin (TRFE_CHICK), not hydrolysed and not digested (from UniProt P02789 20-705) | 0.7% | -4.1% | -0.3% | –
64 | Ovomucin, not hydrolysed and not digested | -0.4% | 5.2% | 2.1% | –
65 | Ovotransferrin/Newlase F hydrolysate | – | – | – | 64.3% and 46.8%

Target: Angiotensin-I Converting Enzyme
Assay: cell-based or functional assay

Row | Substance | IC50 (mg/mL), ACE inhibition (Hip-His-Leu assay)
66 | Egg White/Alcalase (LS 250903) | 0.46 mg/mL
